Test results published in the DeepSol protein solubility set.

assay: soluble on expression in E. coli; label from the status in PepcDB or PDB records

Row | Sequence | soluble on expression in E. coli
1 | MMIENDETLNELHNDEEFCIKEQLSHVDHDEKVHVDSIVKKSECAHNYEQREKRDRSSSVDSKPEIKKICRCHESNCSKSSKYEKSSCGSKNKSGDSLSTASTGINECLNNSKNLNEPFKFFIGGIPQYITSKDTHELNGKRVDVREENNTTPSDIQRKIFVGGLNYYWTKDTLESYFSTFGEIDVVQIVLDSSGRSRCFGFVVFSNENSVAKVLKHKRHKIYDKMVEVRKAEPKKPKMSIKRSNNKNFSKFPPHIPFMAPFPPCNKETMAQWANFMYNTCGVPFLFNQRFQNLPDFYSNYNYYQNSLENIQQSEYNN | not soluble
2 | MESKREYDYILPGRAESYWLATVPEPSYPALKGDIRVDIAIIGGGIAGLTTAYLLKEAGFSSIAVIEAGRILRGVTGHTTAKVTSQHSLIYDRLLSKFGKRQAQQYAESNQAALEKIASIVASKKIDCDFVRKPSYVYAGSEDSTNKIQNEAQTARNLGLPASFEENLPLPFKTYGAVRFNNQAQFHPVKYLNALAEQIHEGGCHIFENTRALKIEGEEPVTITTDKGTIRAHKVVQAMHYPIHDRPGLFFQRLYQSRSYVLGVRIRDPFPDGMFINAEEPVRSLRSQSTDKGELILVSGEGHRTGEEEHEISRYQNLEKWVRSVYSVDSIDYRWSSQDAISIDHIPYIGRQTSGNDSIFLATGFKKWGMTMGTVAAMIIKDMIREKYNPWEEVYDPSRFKPVESAKTLLSQAVEATKGFVGDRILPTHKEASQIGPEEGAIVKIEGERVAAYRDRNGVLYTLNPSCRHLGCIVSWNDAEKTWDCPCHGSRYKATGEVIHSPAVYGLSEKKIRGQDKNNIHTLEHHHHHH | soluble
3 | TVVNDPSCESVVTTPQHSLRDANSPAGLLSIAEETLAEFLSKATGTAVDWVQMPGMKPGPDSVGIFAISQRCNGVAARACGLVSLEPMKIAEILKDRPSWFRDCRSLEVFTMFPAGNGGTIELVYMQTYAPTTLAPARDFWTLRYTTSLDNGSFVVCERSLSGSGAGPNAASASQFVRAEMLSSGYLIRPCDGGGSIIHIVDHLNLEAWSVPDVLRPLYESSKVVAQKMTISALRYIRQLAQESNGEVVYGLGRQPAVLRTFSQRLSRGFNDAVNGFGDDGWSTMHCDGAEDIIVAINSTKHLTNISNSV | soluble
4 | MPCSEETPAISPSKRARPAEVGGMQLRFARLSEHATAPTRGSARAAGYDLYSAYDYTIPPMEKAVVKTDIQIALPSGCYGRVAPRSGLAAKHFIDVGAGVIDEDYRGNVGVVLFNFGKEKFEVKKGDRIAQLICERIFYPEIEEVQALDDTERGSGGFGSTGKN | soluble
5 | MQKIKVQDAIGSVLMHDLTQIIPGKTKDARFRKGHVIKEEDIPTLLSMGKEHIFVWDQTPGLIHEDEAAERLAKAVAGPGLSFSETKEGKVNLIAEEDGLIYASEEGIYALNSLEYIILATLHNHRPVKKGQKIAGTRVVPLMIDENVVIEAEGIARRFEEPILQIRPLQSKKVGVVTTGSEVYHGRIQDKFGPVLQRKVAEWGSVLLGQTFADDDVEMIQERIREHIEQGAEMVLVTGGMSVDPDDLTPTAIKGLGGRVDHLWHSCSSRSHAVAGLPGLEHHHHHH | not soluble
6 | MGSDKIHHHHHHMIRFRNFWLPIWNRKMSMKNLYENDLLYRTTGPALRPGGFELTDWAVEHCRFQAGDRILDVGCGRGATVNRLRSHYHLEAYGIDPSATLLTLGQETYPDLPLSKGRGEDIPFTNSCFDGVFVECSLSLMTDPDQALSEIRRVLKVKGKLIIHDVYARNPQGTPDLRELNIGTCIRNALVKEDLEHGLESKGLRTIHWQDHSPLLNRLMMELIMTHGSMSAFWLKSTDCSADPNRVQAALKKAKVGYFQLIAEKEAEKEAEHCPVR | not soluble
7 | MGSDKIHHHHHHVPNEKLSNRDRLLAVRDIFEQYSDEEQTLTLEELSTELSKRGLIEKLSRKSLKEDIAALAKSGFDIHAEETKNGLAIPYHLVSRPFEYHHLRLLVDAIASAKFISESETEVLVRNIHTLTSKRLAKTLTPVIHTVKKPKGVIPFSIDTIQKAIIEQDIISFQYQGKFNERTRKFELRRDGDYYLVTPAHLIVDNGNYYLIGRDERVEEIRTYRVDRIVNCSVFEPAQTPVEVEATYLSSMFNMYGGEQEQLTLKFHESVMPTVVDRFGTDIRCRRLEGDWFEVKVGALFSQGFMMWLIQFAEQAEILEPALCREAFKNKVLELAKVYQAGVPVSPQMNESV | not soluble
8 | DSQDWHDWIDQALTERRLLLYFQPVVDCLDTQRVLHHKVLARLLDPQATAIAAGRFLPWIERFGWAARMDLAMLEQSLEHLRRHPRPLALSLSAASVRNAQTFAPLLALLKAHPQEARQLTLELDERHLPAAAELERLSQVLRELGCGLGLQHFGGRFSLIGNLTHLGLAYLKLDGCYLHAVDREGDKRLFIEAVYRTTHSIDLPLIAEQVETLGELEVLREMGLRGAMGRLFGSPAPWSGDA | soluble
9 | ADTPGEATPPPRKKKDIRDYNDADMARLLEQWEKDDDIEEGDLPEHKRPSAPIDFSKLDPGKPESILKMTKKGKTLMMFVTVSGNPTEKETEEITSLWQGSLFNANYDVQRFIVGSDRAIFMLRDGSYAWEIKDFLVSQDRCAEVTLEGQMYPGKGGGSKEKNKTKPEKAKKKEGDPKPRASKEDNRAGSRREDL | soluble
10 | MKNESIKIFQKKKQVILEKWITIQSQDQGLNNDLITNEDLRVQSEELLYTFIDNLTDNNIENPDSRDFENVLDILSSISISRAKQGYSPRETGFYVYSLKEALLSVLNEEIKDSSVLYTQSMAINKLLDSFTISTFETFIKGREDVIFRQTDEITQISTPVIRVWDGILALPIIGTLDSSRTQVVMESLLQEIVDTGSSIAILDISGVPAVDSLVAQHLIKTVSATRLMGAECIISGIRPEIAQTVVHLGIDLSTIITKATLASALKTAFVMLNLEVNKKQRNKTV | not soluble
11 | MRHRVKKKHFDRTKEQRLALYRSLARALIFDERIETTVERAKALRSFIEPLVELAKEGTLHARRQALSRLPDKPAIKKLFEDIAPRFEGRNGGYVRIIKLPYRRRGDGAEMAIIEWVELEHHHHHH | not soluble
12 | MPHIVKSTILDAPTDAAWSVLRDFNGHDRWHPAVATSMIERAQPSDKIGCVRRFKLKDGSELREQLLALSDLEQSFSYCLLDTPVPMFNYVAHVRLLPVTDGDRTFWHWESRFTTRPEDKDRITHMVAEDIYQAGFEAIRRHLKEAASSWPLEHHHHHH | soluble
13 | MIASLDELYHSELFFLPVMDENARLVGLEIIATFAAEDGAVRMPTELVAPRLSVEEQYCLFVEKLALLETCQHFFIQHKLIAWLNLPPAISDLLLLDSELFSRAARFPFLELAINENYPGLNQGKNNETLANLAMHFPLMLANFGAGEASTKAIFDGLFKRVMLDKNFIQQRAEMISFEPFMHAIVAQISSSCESLMIAGIDTEAMFARAAPLGFSAFQGGLWPPVPVSQLIKLVQR | not soluble
14 | MSRFQTLTPASLSREAFIEAFADIYEHSPWVAEKAYDLGIDDSLNDIEGLHQRMADILLSASREAQLALINAHPDLAGKAAIRGELTASSTSEQAGAGIHECSAEEFARFTELNDAYKARFGFPFIKAVKGSNRHQILAAFEERIQHSADEEFATALAEINKIALFRLQQL | not soluble
15 | MGSDKIHHHHHHMLKGIPHDSPLYEVDEDRGIEYRNCDAIVGFFTIKGDVSDLLPEGLKAYSKPAQGGIWISHYSFSTVGEYHEYLTVIQVEDEQGDMGYYIPYIYVTNDSALAAGRELAGAPKKLANIGLVKELDVVMGYLERPTGKRLVTFVMKPNTRALGGMIDFVLPKPTYLYSVRHLPPIKGKGGVTQLVKWYADIDFHVDPKGERAIFMGPGNITYDSPSVIDPVHKVEIDTLMTALYFQFDMKLGFVDILREY | not soluble
16 | MKSHKMMGGGISMHYITACLKIISDKDLNEIMKEFKKLEEETNKEEGCITFHAYPLEPSERKIMLWEIWENEEAVKIHFTKKHTIDVQKQELTEVEWLMKSNVND | soluble
17 | MGSDKIHHHHHHMDDGELEEVFFDEIETIAGKIYLGRIEKIVPGLEAAFVKIGKGRNAFLKLSEINEAYRKTVLKGQEVKEGQKILVQVKKDASGKKGPQVTPQIGIADRFVVIFPFKKVIGVSRKIEDASERRRLRTIAFSLRKKYGVGVIMRTAAEGVDEEEIIKNFERALEKWNQVLQKFRRSRKPKLLYEEDPVEQIIKEKVNSKIDKLIYNDRSLLETLQKYLQNLPKKPEIEYVEGDLFEKFSVYERLKKLLSRTVPLKSGGNIVIDRTEALTVIDVNSESYTDAENQEELALKTNMEAIEEIVRQLILRNIGGIVVIDFIKQKDPKSYEKLLSRFKEVAKRDGTRIEIFGFTNLGLLEITRKRTTRPLDTLLFTRCPVCSGTGKVLSQKILLKRIREDLKKLKDFEEVTLKVHPNMSGYFKREDIKKLQKEFKVKLNLDYGWHDPNSYEIKAKTKKGGK | not soluble
18 | MNSENSFSSSEHITVLLHEAVNGLALKENGIYIDGTFGRGGHSRFILSQLSSNGRLIAVDRDPRAIAEAHKIQDLRFQIEHNSFSHIPEICDKLNLVGKIDGILLDLGVSSPQLDEAERGFSFMKDGPLDMRMDTTQGLSAEEWLKQVSIEDLTWVLKTFGEERFAKRIATAIVDFNKSAVKNGTEFLSRTSQLAELISQAVPFKDKHKHPATRSFQAIRIFINSELDELESLLNSALDMLAPEGRLSIISFHSLEDRMVKHFMKKQSKGEDIPKGLPLREDQIQRNQKLRIIGKAIQPSDAEIQANPRSRSAILRVAERI | not soluble
19 | MSDLPRKAVTRTAKLAALPLGFAGRATWGLGKRIVGESAEIVGQQLQQRTAEQLFKVLGELKGGAMKFGQALSVFESALPEEVAGPYRAALTKLQEAAPPMPTRTVHSVLAERLGEDWQELFLEFEDKPAAAASIGQVHRGVWQDGREVAVKVQYPGAGEALLSDLNQLSRFARLLGPLVPGMDIKPLITELKDRVSEELDYDLEAQAQRTHAEVFDDDPDIVVPDVIHQCEQVLITEWIDGIPMSEIISNGTQEQRDRAGQLLAHFLFSGPARTGLLHADPHPGNFRLLPGGPRGEDDWRLGVLDFGTVDRLPGGLPEPIGEALRMTLDGEAEAVYEMLCAEGFVKESIELAPDAVLEYLLPIIEPARVDAFTFTRGWMRSQAARIGDPRSPAYQLAKQLNLPPAYLLIHRVTLSTIGVLCQLGATVRLRDELEEWLVGFVAEGEAEVEEGEEADEDVYETEGTAAEALEHHHHHH | not soluble
20 | MGSDKIHHHHHHMDITALQQQLELIQQNDYTQLRHIDINELTLHMLQYIGTTDSYVRYQLIYKCFVHFIHHEFLMDDQLKLLLQTCLSDEYLYCDIYSPHSDGVFTRSYTVSLIALILQFANSHYFCTEEDIEEIKNKLITYTNLETDFRGYIENKGWAHCLAHVSDAFTEIVHNSYTTFEWYEELIHCLLNKIFIPSDLFHNNEDERIVTPLLAMLYHDFPQDELISIIQKKIKRLPQIRKRLSLNEYCILCANIKTFLRTLFFRTKDDHNLAFTARKTERMLKELPNYY | not soluble
21 | MHHHHHHSSGRENLYFQGTLSALAVDLGGTNLRVAIVSMKGEIVKKYTQFNPKTYEERINLILQMCVEAAAEAVKLNCRILGVGISTGGRVNPREGIVLHSTKLIQEWNSVDLRTPLSDTLHLPVWVDNDGNCAALAERKFGQGKGLENFVTLITGTGIGGGIIHQHELIHGSSFCAAELGHLVVSLDGPDCSCGSHGCIEAYASGMALQREAKKLHDEDLLLVEGMSVPKDEAVGALHLIQAAKLGNAKAQSILRTAGTALGLGVVNILHTMNPSLVILSGVLASHYIHIVKDVIRQQALSSVQDVDVVVSDLVDPALLGAASMVLDYTTRR | soluble
